Measurements from article PMC2191820.

T1: Ig/EBP-1 (C/EBP gamma) (mouse, UniProt P53568 1-150)
T1 sequence: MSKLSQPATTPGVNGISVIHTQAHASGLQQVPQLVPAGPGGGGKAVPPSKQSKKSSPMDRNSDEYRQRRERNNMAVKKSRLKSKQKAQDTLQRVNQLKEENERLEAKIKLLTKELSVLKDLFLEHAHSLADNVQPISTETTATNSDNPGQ

B1: oligo A wt (dsDNA)
DNA 1: GATCCTGCCTTAGTCAACTTCCCAAGAACAGA
DNA 2: GATCTCTGTTCTTGGGAAGTTGACTAAGGCAG
B2: A mt13 (dsDNA)
DNA 1: GATCCTGCCCCTCGAGGTTCCCAAGAACAGA
DNA 2: GATCTCTGTTCTTGGGAACCTCGAGGGGCAG

Biological target: T1, Ig/EBP-1 (C/EBP gamma)
Assay: EMSA

Binder | binding result
B1 | binds
B2 | no binding
